This is an account of results in PMC3821618.

The test deals with TagRFP-T (Entacmaea quadricolor). Description: fluorescence correlation spectroscopy (FCS), molecular brightness analysis; live transfected mouse GHFT1 cells, cytosol; molecular brightness Mb = CPS/(N*Po) from one-component autocorrelation fits, compared with published intrinsic brightness and between FP alone and FP-BZip; 561 nm excitation, 36 °C, 5% CO2.

As to TagRFP-T, the fraction of the molecules that are dimers is 30%.
